The results in this text go back to publication PMC9231623, “ESCPE-1 mediates retrograde endosomal sorting of the SARS-CoV-2 host factor Neuropilin-1” (Proceedings of the National Academy of Sciences of the …, 2022).

In assay [1] the target is T1, SNX6 PX domain (UniProt Q9UNH7 26-173).
T1 construct: PX domain of sorting nexin 6, from a pGEX-4T-2 construct; also called PX domain of SNX6; source: E. coli BL21 (DE3), purified (glutathione Sepharose 4B, thrombin cleavage, Superdex 75 gel filtration)
T1 sequence (looked up): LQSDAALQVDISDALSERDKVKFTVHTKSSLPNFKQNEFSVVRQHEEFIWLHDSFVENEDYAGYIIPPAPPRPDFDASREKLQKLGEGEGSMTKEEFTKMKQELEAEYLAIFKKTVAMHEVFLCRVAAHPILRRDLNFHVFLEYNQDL
As to the kind of experiment: ITC; Microcal ITC200, 298 K; 50 mM Hepes pH 7.5, 200 mM NaCl, 0.5 mM TCEP; SNX5/6 PX titrated with NRP1 peptide, 13 injections; single site binding model; mean of three experiments. The following applies: both partners purified. Background: In ITC the heat of successive injections is recorded.

Assay [2] addresses T2, SNX5 PX domain (UniProt Q9Y5X3 25-172).
T2 construct: PX domain of sorting nexin 5, from a pGEX-4T-2 construct; also called PX domain of SNX5; source: E. coli BL21 (DE3), purified (glutathione Sepharose 4B, thrombin cleavage, Superdex 75 gel filtration)
T2 sequence (looked up): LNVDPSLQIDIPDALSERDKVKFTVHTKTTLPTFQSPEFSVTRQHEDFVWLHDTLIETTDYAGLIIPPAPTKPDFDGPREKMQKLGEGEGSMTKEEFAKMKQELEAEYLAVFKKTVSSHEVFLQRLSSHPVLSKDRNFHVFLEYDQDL
The assay is described as above. The following applies: both partners purified.

B1: NRP1 peptide (residues 894 to 918 of the cytosolic tail) (peptide)
peptide: not shown
notes: Neuropilin-1 cytosolic tail, residues 894 to 918; only stretches of it are printed (898-NYNFELV-904, 905-DG-906, 907-VKLKKD-912); also called synthetic peptide corresponding to these residues in NRP1; source: synthetic peptide
As usually defined, the Kd is the equilibrium constant for the complex coming apart. In the case of B1, the Kd in assay [1] is 14.3 µM; in assay [2], 19.8 µM.
